PMC10846083

Columns and labels:
[1] = target: T1, MqsA (Escherichia coli K-12 MG1655) (UniProt Q46864); experiment: DNase I footprinting; conditions: EMSA: 0.25 pmol biotin probe, MqsA titration, 6% polyacrylamide gel in TBE, buffer not given, footprinting: 200 ng FAM probe, 30 min, 25 C
T1 sequence: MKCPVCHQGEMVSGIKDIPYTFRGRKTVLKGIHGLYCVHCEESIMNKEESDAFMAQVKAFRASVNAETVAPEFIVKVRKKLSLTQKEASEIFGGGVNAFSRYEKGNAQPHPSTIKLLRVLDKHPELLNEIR

[2] = target: T1, MqsA (Escherichia coli K-12 MG1655); experiment: EMSA; conditions: EMSA: 0.25 pmol biotin probe, MqsA titration, 6% polyacrylamide gel in TBE, buffer not given, footprinting: 200 ng FAM probe, 30 min, 25 C

Sequence	binding [1]	binding [2]
GATTGCGTAGCAGGGCCACTGGTATCTGCCGGTATCACCGACATTAACATTGAAGACGACCAGGGCATTCACGTCCGCCTGATAGTTCGTGATGCCGAAGGTCGGATGGTTGGCGGGCATGGAACTTTGAACCGGACGCCGGTGAAGGTTTTAACCGCTATATCCACAGGTCAGGCATCCGCACCGACACCTTCCCCCGCTGACTCCGAATCATTTACCAGCAACATTTCACCTTCCCAAACGCGCTTTATTACCTCATACGCCAG (double strand) [FAM-lfgA (yfjY) promoter footprint probe]	binds	–
CTGGCGTATGAGGTAATAAAGCGCGTTTGGGAAGGTGAAATGTTGCTGGTAAATGATTCGGAGTCAGCGGGGGAAGGTGTCGGTGCGGATGCCTGACCTGTGGATATAGCGGTTAAAACCTTCTTTTGCGTCATTATCAAAGTTCCATGCCCGCCAACCATCCGACCTTCGGCATCACGAACTATCAGGCGGACGTGAATGCCCTGGTCGTCTTCAATGTTAATGTCGGTGATACCGGCAGATACCAGTGGCCCTGCTACGCAATC (double strand) [lfgA promoter mutant probe 1 (MP)]	–	binds
CTGGCGTATGAGGTAATAAAGCGCGTTTGGGAAGGTGAAATGTTGCTGGTAAATGATTCGGAGTCAGCGGGGGAAGGTGTCGGTGCGGATGCCTGACCTGTGGATATAGCGGTTAAAACCTTCACCGGCGTCCGGTTCAAAGTTCCATGCCCGCCAACCATCCGACCTTCGGCATCACGAACTATCAGGCGGACGTGAATGCCCTGGTTTGTGTCAATGTTAATGTCGGTGATACCGGCAGATACCAGTGGCCCTGCTACGCAATC (double strand) [lfgA promoter mutant probe 2 (MP2)]	–	no binding
GATTGCGTAGCAGGGCCACTGGTATCTGCCGGTATCACCGACATTAACATTGAAGACGACCAGGGCATTCACGTCCGCCTGATAGTTCGTGATGCCGAAGGTCGGATGGTTGGCGGGCATGGAACTTTGAACCGGACGCCGGTGAAGGTTTTAACCGCTATATCCACAGGTCAGGCATCCGCACCGACACCTTCCCCCGCTGACTCCGAATCATTTACCAGCAACATTTCACCTTCCCAAACGCGCTTTATTACCTCATACGCCAG (double strand) [lfgA (yfjY) promoter WT probe]	–	binds
